The source of these data is publication PMC10197521 (bioRxiv, 2023).

What all share (assay): co-IP
Assay [1] deals with T1, C-terminally truncated mouse CD4 T1 (mouse, UniProt P06332-1 27-422).
T1 sequence (looked up): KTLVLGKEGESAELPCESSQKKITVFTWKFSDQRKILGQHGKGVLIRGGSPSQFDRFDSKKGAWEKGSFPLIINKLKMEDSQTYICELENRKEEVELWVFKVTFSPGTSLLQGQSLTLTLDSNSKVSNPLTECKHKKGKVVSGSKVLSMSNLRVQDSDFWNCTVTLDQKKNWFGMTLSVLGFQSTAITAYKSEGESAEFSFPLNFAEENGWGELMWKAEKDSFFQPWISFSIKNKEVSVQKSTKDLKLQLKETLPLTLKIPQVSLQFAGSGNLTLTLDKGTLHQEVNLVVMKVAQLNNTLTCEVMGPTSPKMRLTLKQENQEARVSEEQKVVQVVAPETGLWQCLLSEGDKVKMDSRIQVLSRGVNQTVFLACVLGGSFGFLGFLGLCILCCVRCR

Assay [2] deals with T2, T1-TMD (CD4 T1 with GGXXG to GVXXL) (mouse, UniProt P06332-1 27-422, G403V | G406L).
T2 sequence (looked up): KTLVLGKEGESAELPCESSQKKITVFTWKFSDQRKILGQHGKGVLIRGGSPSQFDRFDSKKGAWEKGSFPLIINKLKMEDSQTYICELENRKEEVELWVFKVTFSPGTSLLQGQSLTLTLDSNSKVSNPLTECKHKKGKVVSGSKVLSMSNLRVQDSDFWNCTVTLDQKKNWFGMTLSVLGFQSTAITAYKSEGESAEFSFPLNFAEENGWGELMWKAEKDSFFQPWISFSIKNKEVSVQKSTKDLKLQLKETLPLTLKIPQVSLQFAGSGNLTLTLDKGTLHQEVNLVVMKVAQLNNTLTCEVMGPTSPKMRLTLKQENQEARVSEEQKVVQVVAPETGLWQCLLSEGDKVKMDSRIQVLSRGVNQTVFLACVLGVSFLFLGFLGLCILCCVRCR

For another assay, the target named is T3, T1-Palm (2C) (mouse, UniProt P06332-1 27-422, C418S | C421S).
T3 sequence (looked up): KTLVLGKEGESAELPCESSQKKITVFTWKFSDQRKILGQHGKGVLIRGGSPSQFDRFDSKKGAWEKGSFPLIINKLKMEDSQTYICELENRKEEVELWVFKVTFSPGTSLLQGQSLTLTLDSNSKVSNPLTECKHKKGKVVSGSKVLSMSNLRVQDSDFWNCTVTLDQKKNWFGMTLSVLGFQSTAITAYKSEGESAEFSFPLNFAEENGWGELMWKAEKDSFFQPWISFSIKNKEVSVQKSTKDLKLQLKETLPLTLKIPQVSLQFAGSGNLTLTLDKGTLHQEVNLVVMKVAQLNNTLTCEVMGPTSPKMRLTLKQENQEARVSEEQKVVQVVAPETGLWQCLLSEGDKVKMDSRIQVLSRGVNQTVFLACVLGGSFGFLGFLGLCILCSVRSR

In another assay the target is T4, T1-TP (2C) (mouse, UniProt P06332-1 27-422, G403V | G406L | C418S | C421S).
T4 sequence (looked up): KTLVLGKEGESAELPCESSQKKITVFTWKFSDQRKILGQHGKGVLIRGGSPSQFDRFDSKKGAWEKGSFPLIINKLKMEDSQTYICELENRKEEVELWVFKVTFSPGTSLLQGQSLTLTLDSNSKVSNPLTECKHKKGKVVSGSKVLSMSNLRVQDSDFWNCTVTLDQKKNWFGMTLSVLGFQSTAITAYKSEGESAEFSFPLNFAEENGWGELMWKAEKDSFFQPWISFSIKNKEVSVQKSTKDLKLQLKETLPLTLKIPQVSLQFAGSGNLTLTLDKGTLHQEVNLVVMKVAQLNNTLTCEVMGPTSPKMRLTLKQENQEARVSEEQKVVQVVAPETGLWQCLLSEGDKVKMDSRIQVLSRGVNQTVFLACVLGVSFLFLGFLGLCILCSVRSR

The target in another assay is T5, T1-TP (3C) (mouse, UniProt P06332-1 27-422, G403V | G406L | C417S | C418S | C421S).
T5 sequence (looked up): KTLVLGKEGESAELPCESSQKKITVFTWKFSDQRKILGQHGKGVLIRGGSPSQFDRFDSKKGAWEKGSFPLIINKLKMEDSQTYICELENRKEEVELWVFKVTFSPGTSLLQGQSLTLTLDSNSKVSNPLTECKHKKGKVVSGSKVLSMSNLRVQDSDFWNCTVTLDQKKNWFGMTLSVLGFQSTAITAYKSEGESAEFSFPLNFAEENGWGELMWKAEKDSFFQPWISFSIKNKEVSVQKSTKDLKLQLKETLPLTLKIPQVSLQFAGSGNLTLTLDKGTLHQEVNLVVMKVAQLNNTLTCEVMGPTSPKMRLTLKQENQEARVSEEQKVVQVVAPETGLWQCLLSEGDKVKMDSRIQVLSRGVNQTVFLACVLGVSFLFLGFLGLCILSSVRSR

B1: Src kinase LCK (enzyme, UniProt P06240 1-509, looked up)
chain: MGCVCSSNPEDDWMENIDVCENCHYPIVPLDSKISLPIRNGSEVRDPLVTYEGSLPPASPLQDNLVIALHSYEPSHDGDLGFEKGEQLRILEQSGEWWKAQSLTTGQEGFIPFNFVAKANSLEPEPWFFKNLSRKDAERQLLAPGNTHGSFLIRESESTAGSFSLSVRDFDQNQGEVVKHYKIRNLDNGGFYISPRITFPGLHDLVRHYTNASDGLCTKLSRPCQTQKPQKPWWEDEWEVPRETLKLVERLGAGQFGEVWMGYYNGHTKVAVKSLKQGSMSPDAFLAEANLMKQLQHPRLVRLYAVVTQEPIYIITEYMENGSLVDFLKTPSGIKLNVNKLLDMAAQIAEGMAFIEEQNYIHRDLRAANILVSDTLSCKIADFGLARLIEDNEYTAREGAKFPIKWTAPEAINYGTFTIKSDVWSFGILLTEIVTHGRIPYPGMTNPEVIQNLERGYRMVRPDNCPEELYHLMMLCWKERPEDRPTFDYLRSVLDDFFTATEGQYQPQP
In the case of B1, in assay [1], the “Lck DRM AUC (LCK found with CD4, normalised to CD4), percent of WT” value was 28.8 % of WT control; the “Lck DSM AUC (LCK found with CD4, normalised to CD4), percent of WT” value was 16.1 % of WT control; the “Lck Total AUC (LCK found with CD4, normalised to CD4), percent of WT” value was 19.2 % of WT control. In assay [2], the “Lck DRM AUC (LCK found with CD4, normalised to CD4), percent of T1” value is 62.4 % of T1 control; the “Lck DSM AUC (LCK found with CD4, normalised to CD4), percent of T1” value is 111 % of T1 control; the “Lck Total AUC (LCK found with CD4, normalised to CD4), percent of T1” value was 93 % of T1 control. For the same molecule, in the assay with T1-Palm (2C), the “Lck DRM AUC (LCK found with CD4, normalised to CD4), percent of T1” value is 274 % of T1 control; the “Lck DSM AUC (LCK found with CD4, normalised to CD4), percent of T1” value was 131 % of T1 control; the “Lck Total AUC (LCK found with CD4, normalised to CD4), percent of T1” value is 139 % of T1 control. In addition, in the assay with T1-TP (2C), the “Lck DRM AUC (LCK found with CD4, normalised to CD4), percent of T1” value is 121 % of T1 control; the “Lck DSM AUC (LCK found with CD4, normalised to CD4), percent of T1” value is 115 % of T1 control; the “Lck Total AUC (LCK found with CD4, normalised to CD4), percent of T1” value is 113 % of T1 control. In addition, in the assay with T1-TP (3C), the “Lck DRM AUC (LCK found with CD4, normalised to CD4), percent of T1” value is 86.8 % of T1 control; the “Lck DSM AUC (LCK found with CD4, normalised to CD4), percent of T1” value was 103 % of T1 control; the “Lck Total AUC (LCK found with CD4, normalised to CD4), percent of T1” value was 101 % of T1 control.
